Assay results from IntAct's records for PubMed 17568776.

B1: RING finger and CHY zinc finger domain-containing protein 1 (Homo sapiens), Q96PM5 (parent)
chain: MAATAREDGASGQERGQRGCEHYDRGCLLKAPCCDKLYTCRLCHDNNEDHQLDRFKVKEVQCINCEKIQHAQQTCEECSTLFGEYYCDICHLFDKDKKQYHCENCGICRIGPKEDFFHCLKCNLCLAMNLQGRHKCIENVSRQNCPICLEDIHTSRVVAHVLPCGHLLHRTCYEEMLKEGYRCPLCMHSALDMTRYWRQLDDEVAQTPMPSEYQNMTVDILCNDCNGRSTVQFHILGMKCKICESYNTAQAGGRRISLDQQ

Variants of: B1
Conditions: with kcc2a_human CAMK2A

Variant | effect of a mutation on the interaction
MAATAREDGASGQERGQRGCEHYDRGCLLKAPCCDKLYTCRLCHDNNEDHQLDRFKVKEVQCINCEKIQHAQQTCEECSTLFGEYYCDICHLFDKDKKQYHCENCGICRIGPKEDFFHCLKCNLCLAMNLQGRHKCIENVSRQNCPICLEDIHASRVVAHVLPCGHLLHRTCYEEMLKEGYRCPLCMHSALDMTRYWRQLDDEVAQTPMPSEYQNMTVDILCNDCNGRSTVQFHILGMKCKICESYNTAQAGGRRISLDQQ [T154A] | disrupting interaction
MAATAREDGASGQERGQRGCEHYDRGCLLKAPCCDKLYTCRLCHDNNEDHQLDRFKVKEVQCINCEKIQHAQQTCEECSTLFGEYYCDICHLFDKDKKQYHCENCGICRIGPKEDFFHCLKCNLCLAMNLQGRHKCIENVSRQNCPICLEDIHTARVVAHVLPCGHLLHRTCYEEMLKEGYRCPLCMHSALDMTRYWRQLDDEVAQTPMPSEYQNMTVDILCNDCNGRSTVQFHILGMKCKICESYNTAQAGGRRISLDQQ [S155A] | disrupting interaction
